T1: MISRII (AMHRII), immobilised on CM5 sensor chip (UniProt Q16671 18-144, limits assumed)
T1 construct: also called MSRII; immobilized receptor
T1 sequence (looked up): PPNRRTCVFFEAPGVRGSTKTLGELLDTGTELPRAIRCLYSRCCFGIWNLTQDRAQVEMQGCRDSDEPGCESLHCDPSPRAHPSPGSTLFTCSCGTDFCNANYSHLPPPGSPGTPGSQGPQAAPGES

T2: human Fcγ RII/CD32a (human, UniProt P12318 36-218)
T2 construct: Captured through anti-His antibody, so a His tag is implied but not described; also called hFcγRIIa
T2 sequence (looked up): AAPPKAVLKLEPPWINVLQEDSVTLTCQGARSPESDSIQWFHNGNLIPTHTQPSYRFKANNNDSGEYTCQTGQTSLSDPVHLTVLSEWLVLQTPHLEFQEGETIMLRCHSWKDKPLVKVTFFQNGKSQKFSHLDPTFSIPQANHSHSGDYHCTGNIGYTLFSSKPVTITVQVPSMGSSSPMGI

T3: human Fcγ RIIbc/CD32bc (human, UniProt P31994 46-217)
T3 construct: treated here as one molecule; also called hFcγRIIb
T3 sequence (looked up): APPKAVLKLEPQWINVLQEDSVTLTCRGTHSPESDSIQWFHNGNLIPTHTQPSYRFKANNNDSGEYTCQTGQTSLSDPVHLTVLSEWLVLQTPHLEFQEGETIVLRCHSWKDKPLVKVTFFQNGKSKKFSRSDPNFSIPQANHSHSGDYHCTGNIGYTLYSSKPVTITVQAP


Columns and labels:
human Fcγ RIIIa/CD16a [1] = molecular target: T4, human Fcγ RIIIa/CD16a (human, UniProt P08637 17-208); assay: SPR, single-cycle titration, FcγR captured on anti-His; 3C23K from YB2/0, low fucose (33.0% fucosylated); upper end of the range 1-12 nM
T4 construct: Captured through anti-His antibody, so a His tag is implied but not described; also called hFcγRIIIa
Procedure: (§1) SPR analyses were performed on a Bia3000 or T200 apparatus at 25° C. in HBS-EP (GE Healthcare). For affinity measurements, MISRII was covalently immobilized (1000 RU) on CM5 sensor chip using EDC/NHS activation according to the manufacturer's instructions (GE Healthcare). Different concentrations (0.5-128 nM) of 12G4 or 3C23K were injected on immobilized receptor during 180 seconds. After 400 seconds of dissociation in running buffer, the sensor chip was regenerated using Gly-HCl pH 1.7. The KD values, taking into account affinity and avidity, were calculated using a Langmuir 1:1 fitting model (BiaEvaluation3.2, GE Healthcare). Antibody-FcγR measurements were performed by single-cycle titration at 100 μl/min on FcγR (Sigma) captured on anti-His (R&D Systems) covalently immobilized at 4000-5000 RU level. The gamma receptor was injected at 20 nM during 60 seconds and five increasing antibody concentrations were injected (injection time=60 seconds). […] Kinetic parameters were evaluated from the sensorgrams using a heterogeneous Ligand or steady-state fitting models on the T200 evaluation software 3.0 (GE healthcare). […]
(§2) The percentages of fucosylated, galactosylated and bisecting GlcNAc isoforms were 33.0%, 57.2% and 1.8% for 3C23K and 94.6%, 54.4% and 2.0%, for 3C23K-CHO, respectively. The effect of these glycosylation differences on the binding to FcγRs was analyzed by SPR.

[2] = molecular target: T1, MISRII (AMHRII), immobilised on CM5 …; assay: SPR, MISRII immobilised on CM5 chip, IgG injected, Langmuir 1:1 fit (affinity and avidity)
Procedure: as §1
To better define the binding characteristics, clone 3C23K was reformatted as an IgG1 antibody, produced in YB2/0 cells and analyzed by surface plasmon resonance (SPR). […]

human Fcγ RI/CD64 [3] = molecular target: T5, human Fcγ RI/CD64 (human, UniProt P12314 16-288); assay: SPR T200, single-cycle titration, receptor captured on anti-His; two state reaction model
T5 construct: Captured through anti-His antibody, so a His tag is implied but not described; also called hFcγRI
Procedure: (§3) Anti-histidine antibodies (R&D Systems) were immobilized on a T200 apparatus at 25° C. in HBS-EP at 10 μl/min flow rate on a CM5 sensor chip using EDC/NHS activation, according to the manufacturer's instructions (GE Healthcare). They were covalently immobilized at the 6900RU level on the flowcell Fc2 and a control reference surface (flowcell Fc1) was prepared using the same chemical treatment but without anti-His antibodies.
(§4) All kinetic measurements in Fc1 and Fc2 were performed by single-cycle titration on a T200 apparatus at 25° C. in HBS-EP at 100 μl/min. Each human gamma receptor (R&D Systems) was captured on immobilized anti-His antibodies at 20 nM during 60 s. Five increasing concentrations of antibody were injected (injection time=120 s). After a dissociation step of 600 s in running buffer, sensor surfaces were regenerated using 5 μl of glycine-HCl pH1.7. All the sensorgrams were corrected by subtracting the low signal from the control reference surface and buffer blank injections. Kinetic parameters were evaluated from the sensorgrams using a heterogeneous ligand or two states models from the T200 evaluation software.
(§5) The results of the measure of the affinity constants (Kd) of the hypo-fucosylated anti-AMHRII 3C23K antibody for the human Fc receptors are depicted in Table 4 below.

human Fcγ RIIIa/CD16a [4] = molecular target: T4, human Fcγ RIIIa/CD16a; assay: SPR, single-cycle titration, FcγR captured on anti-His; 3C23K from YB2/0, low fucose (33.0% fucosylated); lower end of the range 1-12 nM
Procedure: as §1, §2

human Fcγ RIIIa/CD16a [5] = molecular target: T4, human Fcγ RIIIa/CD16a; assay: SPR (Biacore); description's upper bound for hypofucosylated 3C23K (YB2/0)
human Fcγ RIIIb/hCD16b [6] = molecular target: T6, human Fcγ RIIIb/hCD16b (human, UniProt O75015 17-200); assay: SPR, single-cycle titration, FcγR captured on anti-His; 3C23K from YB2/0, low fucose (33.0% fucosylated)
T6 construct: Captured through anti-His antibody, so a His tag is implied but not described; also called hFcγRIIIb
Procedure: as §1, §2

human Fcγ RII/CD32a = molecular target: T2, human Fcγ RII/CD32a; assay: SPR T200, single-cycle titration, receptor captured on anti-His; heterogeneous ligand model (footnote *)
Procedure: as §3, §4, §5

human Fcγ RIIIb/hCD16b [7] = molecular target: T6, human Fcγ RIIIb/hCD16b; assay: as above
Procedure: as §3, §4, §5

human Fcγ RIIIa/CD16a [8] = molecular target: T4, human Fcγ RIIIa/CD16a; assay: SPR, single-cycle titration, FcγR captured on anti-His; 3C23K-HEK293, expressed in HEK293 (comparator, not fucose-reduced); lower end of the range 31-164 nM
Procedure: as §1, §2

human Fcγ RIIIb/hCD16b [9] = molecular target: T6, human Fcγ RIIIb/hCD16b; assay: SPR, single-cycle titration, FcγR captured on anti-His; 3C23K-HEK293, expressed in HEK293 (comparator, not fucose-reduced)
Procedure: as §1, §2

human Fcγ RI/CD64 [10] = molecular target: T5, human Fcγ RI/CD64; assay: SPR, FcγR captured on anti-His
Procedure: as §1, §2

human Fcγ RIIbc/CD32bc = molecular target: T3, human Fcγ RIIbc/CD32bc; assay: SPR, FcγR captured on anti-His
Procedure: as §1, §2

human Fcγ RIIIa/CD16a [11] = molecular target: T4, human Fcγ RIIIa/CD16a; assay: SPR, single-cycle titration, FcγR captured on anti-His; 3C23K-HEK293, expressed in HEK293 (comparator, not fucose-reduced); upper end of the range 31-164 nM
Procedure: as §1, §2

T4 sequence (P08637 17-208 limits assumed): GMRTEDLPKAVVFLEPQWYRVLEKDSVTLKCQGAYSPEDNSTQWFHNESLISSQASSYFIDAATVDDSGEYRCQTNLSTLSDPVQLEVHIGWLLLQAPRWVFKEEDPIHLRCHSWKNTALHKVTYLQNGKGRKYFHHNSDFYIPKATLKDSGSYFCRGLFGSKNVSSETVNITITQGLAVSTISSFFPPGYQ
T6 sequence (O75015 17-200 limits assumed): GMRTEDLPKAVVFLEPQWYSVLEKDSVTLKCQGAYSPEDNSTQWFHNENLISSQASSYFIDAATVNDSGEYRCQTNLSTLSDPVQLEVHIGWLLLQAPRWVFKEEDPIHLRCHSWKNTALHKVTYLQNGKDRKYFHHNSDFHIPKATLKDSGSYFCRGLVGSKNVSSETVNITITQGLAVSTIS
T5 sequence (P12314 16-288 limits assumed): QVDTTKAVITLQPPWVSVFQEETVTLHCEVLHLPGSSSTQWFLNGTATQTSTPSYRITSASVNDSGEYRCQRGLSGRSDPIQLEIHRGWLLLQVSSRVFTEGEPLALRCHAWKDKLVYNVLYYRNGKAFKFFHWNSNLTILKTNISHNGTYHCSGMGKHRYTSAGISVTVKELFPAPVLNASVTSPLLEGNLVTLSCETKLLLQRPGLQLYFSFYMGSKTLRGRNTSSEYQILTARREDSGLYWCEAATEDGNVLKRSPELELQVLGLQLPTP

Kd (human Fcγ RIIIa/CD16a [1])	Kd [2]	Kd (human Fcγ RI/CD64 [3])	Kd (human Fcγ RIIIa/CD16a [4])	Kd (human Fcγ RIIIa/CD16a [5])	Kd (human Fcγ RIIIb/hCD16b [6])	Kd (human Fcγ RII/CD32a)	Kd (human Fcγ RIIIb/hCD16b [7])	Kd (human Fcγ RIIIa/CD16a [8])	Kd (human Fcγ RIIIb/hCD16b [9])	binding result (human Fcγ RI/CD64 [10])	binding result (human Fcγ RIIbc/CD32bc)	Kd (human Fcγ RIIIa/CD16a [11])	Binder
≤ 12 nM	0.055 nM	0.2 to 3.3 nM	≥ 1 nM	< 50 nM	86 nM	120 nM	49 nM						3C23K humanised anti-AMHRII monoclonal antibody produced in YB2/0 cells (hypofucosylated, EMABling version) (antibody, human IgG1, kappa, N-glycan at ASN295 of the heavy chain, hypofucosylated (33.0% fucosylated isoforms for 3C23K from YB2/0), also called GM102; R18H2) heavy: not shown light: DIQMTQSPSTLSASVGDRVTITCRASSSVRYIAWYQQKPGKAPKLLTYPTSSLKSGVPSRFSGSGSGTEFTLTISSLQPDDFATYYCLQWSSYPWTFGGGTKVEIKRTVAAPSVFIFPPSDEQLKSGTASVVCLLNNFYPREAKVQWKVDNALQSGNSQESVTEQDSKDSTYSLSSTLTLSKADYEKHKVYACEVTHQGLSSPVTKSFNRGEC
								≥ 31 nM	378 nM	binds	binds	≤ 164 nM	3C23K antibody expressed in HEK293 cells (antibody, human IgG1, kappa, It differs from m1 only in glycosylation; also called 3C23K-HEK293) heavy: not shown light: DIQMTQSPSTLSASVGDRVTITCRASSSVRYIAWYQQKPGKAPKLLTYPTSSLKSGVPSRFSGSGSGTEFTLTISSLQPDDFATYYCLQWSSYPWTFGGGTKVEIKRTVAAPSVFIFPPSDEQLKSGTASVVCLLNNFYPREAKVQWKVDNALQSGNSQESVTEQDSKDSTYSLSSTLTLSKADYEKHKVYACEVTHQGLSSPVTKSFNRGEC
	0.79 nM												murine anti-MISRII monoclonal antibody 12G4 (antibody, V domains shown) VH: QVQLQQSGPELVKPGASVRMSCKASGYTFTSYHIHWVKQRPGQGLEWIGWIYPGDDSTKYNEKFKGKTTLTADKSSSTAYMLLSSLTSEDSAIYFCTRGDRFAYWGQGTLVTVSA VL: QIVLTQSPAIMSASLGEGITLTCSASSSVRYIHWYQQKSGTSPKLLIYSTSNLASGVPSRFSGSGSGTFHSLTISSVEAEDAADYYCLQWSSYPWTFGGGTKLEIK

Reference: US20200148777A1 (GAMAMABS PHARMA, published 2020)
